Test results: patent US20230192903A1 (published 2023)

Tests used:
[1] = molecular target: T1, Human CLDN18.2 (human); experiment: flow cytometry, NUGC4 cells (endogenous CLDN18.2)
T1 construct: the cell line is named under assay; also called hCLDN18.2; human CLDN18.2 antigen

[2] = molecular target: T1, Human CLDN18.2; experiment: flow cytometry, NUGC4-hCLDN18.2 cells
Experimental: NUGC4 and NUGC4-hCLDN18.2 cells were cultured, digested with pancreatin and centrifuged to collect cells. The cells were collected and resuspended in buffer (PBS+1% FBS) at 1×10⁴ cells/well in a 96-well plate at 100 μL per well. Then the mixture was centrifuged at 350×g for 5 min, and the supernatant was removed.

[3] = molecular target: T1, Human CLDN18.2; experiment: cell-based or functional assay
[4] = molecular target: T2, human CD3 antigen (human, UniProt P07766 23-126); experiment: SPR (Biacore T200), human CD3 antigen on CM5 chip
T2 construct: also called Human CD3ϵ
Experimental: After the detection was completed, data fitting was carried out on the result pattern by adopting Biacore T200 Evaluation Software in a 1:1 binding fitting mode to obtain an equilibrium dissociation constant (KD).

[5] = molecular target: T3, Human CLDN18.1 (human, UniProt P56856 1-261); experiment: flow cytometry, 293T-hCLDN18.1 cells
T3 construct: also called hCLDN18.1

Binder	EC50 [1] [nM]	EC50 [2] [nM]	EC50 value for killing effect on NUGC4-hCLDN18.2 cells [3] [nM]	EC50 value for killing effect on NUGC4 cells [3] [nM]	Kd [4] [nM]	binding result [5]
bispecific antibody CS8 (bispecific antibody, human IgG1, kappa, CSBODY structure: two 2C6.9 Fab arms; second heavy chain (first heavy entry) and first heavy chain with anti-CD3 scFv (Di6-2) between CH1 and Fc2) light: not shown heavy 1: QVQLQESGPGLVKPSETLSLTCTVSGFSLTRYGVSWIRQPPGKGLEWIGVIWGEGNTNYNPSLKSRVTISKDSSKSQVSLKLSSVTAADTAVYYCARVNFGNALDYWGQGTLVTVSSASTKGPSVFPLAPSSKSTSGGTAALGCLVKDYFPEPVTVSWNSGALTSGVHTFPAVLQSSGLYSLSSVVTVPSSSLGTQTYICNVNHKPSNTKVDKKVEPKSCDKTHTCPPCPAPPVAGPSVFLFPPKPKDTLMISRTPEVTCVVVDVSHEAPEVQFNWYVDGVEVHNAKTKPREEQFNSTFRVVSVLTVVHQDWLNGKEYKCKVSNKGLPAPIEKTISKTKGQPREPQVYTLPPCRDELTKNQVSLWCLVKGFYPSDIAVEWESNGQPENNYKTTPPVLDSDGSFFLYSKLTVDKSRWQQGNVFSCSVMHEALHNHYTQKSLSLSPGK heavy 2: QVQLQESGPGLVKPSETLSLTCTVSGFSLTRYGVSWIRQPPGKGLEWIGVIWGEGNTNYNPSLKSRVTISKDSSKSQVSLKLSSVTAADTAVYYCARVNFGNALDYWGQGTLVTVSSASTKGPSVFPLAPSSKSTSGGTAALGCLVKDYFPEPVTVSWNSGALTSGVHTFPAVLQSSGLYSLSSVVTVPSSSLGTQTYICNVNHKPSNTKVDKKVEPKSCDKTHTAPAPAPAPAPAPAPAPQVQLVESGGGVVQPGRSLRLSCAASGFTFSTYAMNWVRQAPGKGLEWVGRIRSKYNNYATYYADSVKDRFTISRDDSKNTLYLQMNSLRGEDTAVYYCARHGNFGNSYVSWFAYWGQGTLVTVSSGGGGSGGGGSGGGGSQTVVTQEPSLTVSPGGTVTLTCRSSTGAVTTSNYANWVQQKPGQAPRGLIGGTNKRAPGVPARFSGSLLGGKAALTLSGVQPEDEAEYTCALWYSNLWVFGGGTKVEIKGGGGSDKTHTCPPCPAPPVAGPSVFLFPPKPKDTLMISRTPEVTCVVVDVSHEAPEVQFNWYVDGVEVHNAKTKPREEQFNSTFRVVSVLTVVHQDWLNGKEYKCKVSNKGLPAPIEKTISKTKGQPREPQVCTLPPSRDELTKNQVSLSCAVKGFYPSDIAVEWESNGQPENNYKTTPPVLDSDGSFFLVSKLTVDKSRWQQGNVFSCSVMHEALHNHYTQKSLSLSPGK	< 100	< 50	< 0.01	< 0.01	< 15	no binding
bispecific antibody CS6 (bispecific antibody, human IgG1, kappa, CSBODY structure: two 175D10 Fab arms; second heavy chain (first heavy entry) and first heavy chain with anti-CD3 scFv (Di6-2) between CH1 and Fc2) light: DIVMTQSPSSLTVTAGEKVTMSCKSSQSLLNSGNQKNYLTWYQQKPGQPPKLLIYWASTRESGVPDRFTGSGSGTDFTLTISSVQAEDLAVYYCQNDYSYPFTFGSGTKLEIKRTVAAPSVFIFPPSDEQLKSGTASVVCLLNNFYPREAKVQWKVDNALQSGNSQESVTEQDSKDSTYSLSSTLTLSKADYEKHKVYACEVTHQGLSSPVTKSFNRGEC heavy 1: QVQLQQPGAELVRPGASVKLSCKASGYTFTSYWINWVKQRPGQGLEWIGNIYPSDSYTNYNQKFKDKATLTVDKSSSTAYMQLSSPTSEDSAVYYCTRSWRGNSFDYWGQGTTLTVSSASTKGPSVFPLAPSSKSTSGGTAALGCLVKDYFPEPVTVSWNSGALTSGVHTFPAVLQSSGLYSLSSVVTVPSSSLGTQTYICNVNHKPSNTKVDKKVEPKSCDKTHTCPPCPAPPVAGPSVFLFPPKPKDTLMISRTPEVTCVVVDVSHEAPEVQFNWYVDGVEVHNAKTKPREEQFNSTFRVVSVLTVVHQDWLNGKEYKCKVSNKGLPAPIEKTISKTKGQPREPQVYTLPPCRDELTKNQVSLWCLVKGFYPSDIAVEWESNGQPENNYKTTPPVLDSDGSFFLYSKLTVDKSRWQQGNVFSCSVMHEALHNHYTQKSLSLSPGK heavy 2: QVQLQQPGAELVRPGASVKLSCKASGYTFTSYWINWVKQRPGQGLEWIGNIYPSDSYTNYNQKFKDKATLTVDKSSSTAYMQLSSPTSEDSAVYYCTRSWRGNSFDYWGQGTTLTVSSASTKGPSVFPLAPSSKSTSGGTAALGCLVKDYFPEPVTVSWNSGALTSGVHTFPAVLQSSGLYSLSSVVTVPSSSLGTQTYICNVNHKPSNTKVDKKVEPKSCDKTHTAPAPAPAPAPAPAPAPQVQLVESGGGVVQPGRSLRLSCAASGFTFSTYAMNWVRQAPGKGLEWVGRIRSKYNNYATYYADSVKDRFTISRDDSKNTLYLQMNSLRGEDTAVYYCARHGNFGNSYVSWFAYWGQGTLVTVSSGGGGSGGGGSGGGGSQTVVTQEPSLTVSPGGTVTLTCRSSTGAVTTSNYANWVQQKPGQAPRGLIGGTNKRAPGVPARFSGSLLGGKAALTLSGVQPEDEAEYTCALWYSNLWVFGGGTKVEIKGGGGSDKTHTCPPCPAPPVAGPSVFLFPPKPKDTLMISRTPEVTCVVVDVSHEAPEVQFNWYVDGVEVHNAKTKPREEQFNSTFRVVSVLTVVHQDWLNGKEYKCKVSNKGLPAPIEKTISKTKGQPREPQVCTLPPSRDELTKNQVSLSCAVKGFYPSDIAVEWESNGQPENNYKTTPPVLDSDGSFFLVSKLTVDKSRWQQGNVFSCSVMHEALHNHYTQKSLSLSPGK	–	< 50	< 0.01	–	< 15	no binding
bispecific antibody CS7 (bispecific antibody, human IgG1, kappa, CSBODY structure: two 1E9.2 Fab arms; second heavy chain (first heavy entry) and first heavy chain with anti-CD3 scFv (Di6-2) between CH1 and Fc2) light: not shown heavy 1: EVQLVESGGGLVKPGGSLRLSCAASGFSFSNSAMSWVRQAPGKGLEWVSTISSGDSYTYYADSVKGRFTISRDNAKNSLYLQMNSLRAEDTAVYYCARQGYGNALDYWGQGTLVTVSSASTKGPSVFPLAPSSKSTSGGTAALGCLVKDYFPEPVTVSWNSGALTSGVHTFPAVLQSSGLYSLSSVVTVPSSSLGTQTYICNVNHKPSNTKVDKKVEPKSCDKTHTCPPCPAPPVAGPSVFLFPPKPKDTLMISRTPEVTCVVVDVSHEAPEVQFNWYVDGVEVHNAKTKPREEQFNSTFRVVSVLTVVHQDWLNGKEYKCKVSNKGLPAPIEKTISKTKGQPREPQVYTLPPCRDELTKNQVSLWCLVKGFYPSDIAVEWESNGQPENNYKTTPPVLDSDGSFFLYSKLTVDKSRWQQGNVFSCSVMHEALHNHYTQKSLSLSPGK heavy 2: EVQLVESGGGLVKPGGSLRLSCAASGFSFSNSAMSWVRQAPGKGLEWVSTISSGDSYTYYADSVKGRFTISRDNAKNSLYLQMNSLRAEDTAVYYCARQGYGNALDYWGQGTLVTVSSASTKGPSVFPLAPSSKSTSGGTAALGCLVKDYFPEPVTVSWNSGALTSGVHTFPAVLQSSGLYSLSSVVTVPSSSLGTQTYICNVNHKPSNTKVDKKVEPKSCDKTHTAPAPAPAPAPAPAPAPQVQLVESGGGVVQPGRSLRLSCAASGFTFSTYAMNWVRQAPGKGLEWVGRIRSKYNNYATYYADSVKDRFTISRDDSKNTLYLQMNSLRGEDTAVYYCARHGNFGNSYVSWFAYWGQGTLVTVSSGGGGSGGGGSGGGGSQTVVTQEPSLTVSPGGTVTLTCRSSTGAVTTSNYANWVQQKPGQAPRGLIGGTNKRAPGVPARFSGSLLGGKAALTLSGVQPEDEAEYTCALWYSNLWVFGGGTKVEIKGGGGSDKTHTCPPCPAPPVAGPSVFLFPPKPKDTLMISRTPEVTCVVVDVSHEAPEVQFNWYVDGVEVHNAKTKPREEQFNSTFRVVSVLTVVHQDWLNGKEYKCKVSNKGLPAPIEKTISKTKGQPREPQVCTLPPSRDELTKNQVSLSCAVKGFYPSDIAVEWESNGQPENNYKTTPPVLDSDGSFFLVSKLTVDKSRWQQGNVFSCSVMHEALHNHYTQKSLSLSPGK	< 100	< 50	< 0.01	< 0.01	< 15	no binding
